According to patent publication US20170362301A1 (Janssen / Centocor, published 2017):

How the values were obtained:
[1] = biological target: T1, EGFR (form in the assay not stated) (human, UniProt P00533 25-645, limits assumed); experiment: ELISA, NEM conjugate 10 nM
[2] = biological target: T1, EGFR (form in the assay not stated); experiment: ELISA, NEM conjugate 100 nM
[3] = biological target: T1, EGFR (form in the assay not stated); experiment: ELISA, NEM conjugate 500 nM

Binder	binding ratio vs parent P54AR4-83v2 [1] [ratio]	binding ratio vs parent P54AR4-83v2 [2] [ratio]	binding ratio vs parent P54AR4-83v2 [3] [ratio]
P54AR4-83v2 A3C, NEM conjugate (designed binder, NEM on Cys 3, His-tagged) LPCPKNLVVSEVTEDSARLSWDDPWAFYESFLIQYQESEKVGEAIVLTVPGSERSYDLTGLKPGTEYTVSIYGVHNVYKDTNMRGLPLSAIFTT	0.34	0.88	0.82
P54AR4-83v2 G64C, NEM conjugate (designed binder, NEM on Cys 64, His-tagged) LPAPKNLVVSEVTEDSARLSWDDPWAFYESFLIQYQESEKVGEAIVLTVPGSERSYDLTGLKPCTEYTVSIYGVHNVYKDTNMRGLPLSAIFTT	1.28	1.42	1.36
P54AR4-83v2 F31C, NEM conjugate (designed binder, NEM on Cys 31, His-tagged) LPAPKNLVVSEVTEDSARLSWDDPWAFYESCLIQYQESEKVGEAIVLTVPGSERSYDLTGLKPGTEYTVSIYGVHNVYKDTNMRGLPLSAIFTT	0.04	0.34	0.62
P54AR4-83v2 E39C, NEM conjugate (designed binder, NEM on Cys 39, His-tagged) LPAPKNLVVSEVTEDSARLSWDDPWAFYESFLIQYQESCKVGEAIVLTVPGSERSYDLTGLKPGTEYTVSIYGVHNVYKDTNMRGLPLSAIFTT	0.9	1	0.9
P54AR4-83v2 A26C, NEM conjugate (designed binder, NEM on Cys 26, His-tagged) LPAPKNLVVSEVTEDSARLSWDDPWCFYESFLIQYQESEKVGEAIVLTVPGSERSYDLTGLKPGTEYTVSIYGVHNVYKDTNMRGLPLSAIFTT	0.95	1.06	0.95
P54AR4-83v2 D22C, NEM conjugate (designed binder, NEM on Cys 22, His-tagged) LPAPKNLVVSEVTEDSARLSWCDPWAFYESFLIQYQESEKVGEAIVLTVPGSERSYDLTGLKPGTEYTVSIYGVHNVYKDTNMRGLPLSAIFTT	0.84	1.02	0.9
P54AR4-83v2 A90C, NEM conjugate (designed binder, NEM on Cys 90, His-tagged) LPAPKNLVVSEVTEDSARLSWDDPWAFYESFLIQYQESEKVGEAIVLTVPGSERSYDLTGLKPGTEYTVSIYGVHNVYKDTNMRGLPLSCIFTT	0.94	1.05	1.01
P54AR4-83v2 H75C, NEM conjugate (designed binder, NEM on Cys 75, His-tagged) LPAPKNLVVSEVTEDSARLSWDDPWAFYESFLIQYQESEKVGEAIVLTVPGSERSYDLTGLKPGTEYTVSIYGVCNVYKDTNMRGLPLSAIFTT	0.07	0.19	0.25
P54AR4-83v2 E43C, NEM conjugate (designed binder, NEM on Cys 43, His-tagged) LPAPKNLVVSEVTEDSARLSWDDPWAFYESFLIQYQESEKVGCAIVLTVPGSERSYDLTGLKPGTEYTVSIYGVHNVYKDTNMRGLPLSAIFTT	0.68	1.04	0.92
P54AR4-83v2 D15C, NEM conjugate (designed binder, NEM on Cys 15, His-tagged) LPAPKNLVVSEVTECSARLSWDDPWAFYESFLIQYQESEKVGEAIVLTVPGSERSYDLTGLKPGTEYTVSIYGVHNVYKDTNMRGLPLSAIFTT	0.98	1.09	0.97
P54AR4-83v2 G51C, NEM conjugate (designed binder, NEM on Cys 51, His-tagged) LPAPKNLVVSEVTEDSARLSWDDPWAFYESFLIQYQESEKVGEAIVLTVPCSERSYDLTGLKPGTEYTVSIYGVHNVYKDTNMRGLPLSAIFTT	0.88	1.03	0.92
P54AR4-83v2 E14C, NEM conjugate (designed binder, NEM on Cys 14, His-tagged) LPAPKNLVVSEVTCDSARLSWDDPWAFYESFLIQYQESEKVGEAIVLTVPGSERSYDLTGLKPGTEYTVSIYGVHNVYKDTNMRGLPLSAIFTT	1.11	1.27	1.15
P54AR4-83v2 D23C, NEM conjugate (designed binder, NEM on Cys 23, His-tagged) LPAPKNLVVSEVTEDSARLSWDCPWAFYESFLIQYQESEKVGEAIVLTVPGSERSYDLTGLKPGTEYTVSIYGVHNVYKDTNMRGLPLSAIFTT	0.02	0.2	0.4
P54AR4-83v2 G60C, NEM conjugate (designed binder, NEM on Cys 60, His-tagged) LPAPKNLVVSEVTEDSARLSWDDPWAFYESFLIQYQESEKVGEAIVLTVPGSERSYDLTCLKPGTEYTVSIYGVHNVYKDTNMRGLPLSAIFTT	0.86	1.02	0.93
P54AR4-83v2 F27C, NEM conjugate (designed binder, NEM on Cys 27, His-tagged) LPAPKNLVVSEVTEDSARLSWDDPWACYESFLIQYQESEKVGEAIVLTVPGSERSYDLTGLKPGTEYTVSIYGVHNVYKDTNMRGLPLSAIFTT	0	0.07	0.23
P54AR4-83v2 I45C, NEM conjugate (designed binder, NEM on Cys 45, His-tagged) LPAPKNLVVSEVTEDSARLSWDDPWAFYESFLIQYQESEKVGEACVLTVPGSERSYDLTGLKPGTEYTVSIYGVHNVYKDTNMRGLPLSAIFTT	0.91	1.04	0.93
P54AR4-83v2 K40C, NEM conjugate (designed binder, NEM on Cys 40, His-tagged) LPAPKNLVVSEVTEDSARLSWDDPWAFYESFLIQYQESECVGEAIVLTVPGSERSYDLTGLKPGTEYTVSIYGVHNVYKDTNMRGLPLSAIFTT	0.88	0.95	0.86
P54AR4-83v2 E11C, NEM conjugate (designed binder, NEM on Cys 11, His-tagged) LPAPKNLVVSCVTEDSARLSWDDPWAFYESFLIQYQESEKVGEAIVLTVPGSERSYDLTGLKPGTEYTVSIYGVHNVYKDTNMRGLPLSAIFTT	0.9	1.08	0.95
P54AR4-83v2 E53C, NEM conjugate (designed binder, NEM on Cys 53, His-tagged) LPAPKNLVVSEVTEDSARLSWDDPWAFYESFLIQYQESEKVGEAIVLTVPGSCRSYDLTGLKPGTEYTVSIYGVHNVYKDTNMRGLPLSAIFTT	0.91	1.02	0.91
P54AR4-83v2 I91C, NEM conjugate (designed binder, NEM on Cys 91, His-tagged; also called 191C) LPAPKNLVVSEVTEDSARLSWDDPWAFYESFLIQYQESEKVGEAIVLTVPGSERSYDLTGLKPGTEYTVSIYGVHNVYKDTNMRGLPLSACFTT	0.9	1.01	1
P54AR4-83v2 E29C, NEM conjugate (designed binder, NEM on Cys 29, His-tagged) LPAPKNLVVSEVTEDSARLSWDDPWAFYCSFLIQYQESEKVGEAIVLTVPGSERSYDLTGLKPGTEYTVSIYGVHNVYKDTNMRGLPLSAIFTT	0.89	1.07	0.93
P54AR4-83v2 G85C, NEM conjugate (designed binder, NEM on Cys 85, His-tagged) LPAPKNLVVSEVTEDSARLSWDDPWAFYESFLIQYQESEKVGEAIVLTVPGSERSYDLTGLKPGTEYTVSIYGVHNVYKDTNMRCLPLSAIFTT	0.19	0.02	0.29
P54AR4-83v2 K5C, NEM conjugate (designed binder, NEM on Cys 5, His-tagged) LPAPCNLVVSEVTEDSARLSWDDPWAFYESFLIQYQESEKVGEAIVLTVPGSERSYDLTGLKPGTEYTVSIYGVHNVYKDTNMRGLPLSAIFTT	0.61	1.06	0.92
P54AR4-83v2 D80C, NEM conjugate (designed binder, NEM on Cys 80, His-tagged) LPAPKNLVVSEVTEDSARLSWDDPWAFYESFLIQYQESEKVGEAIVLTVPGSERSYDLTGLKPGTEYTVSIYGVHNVYKCTNMRGLPLSAIFTT	0.7	0.97	0.91
P54AR4-83v2 G73C, NEM conjugate (designed binder, NEM on Cys 73, His-tagged) LPAPKNLVVSEVTEDSARLSWDDPWAFYESFLIQYQESEKVGEAIVLTVPGSERSYDLTGLKPGTEYTVSIYCVHNVYKDTNMRGLPLSAIFTT	0	0.02	0.21
P54AR4-83v2 G42C, NEM conjugate (designed binder, NEM on Cys 42, His-tagged) LPAPKNLVVSEVTEDSARLSWDDPWAFYESFLIQYQESEKVCEAIVLTVPGSERSYDLTGLKPGTEYTVSIYGVHNVYKDTNMRGLPLSAIFTT	0.84	0.99	0.9
